Article PMC9431274, “Stenotrophomonas maltophilia from Nepal Producing Two Novel Antibiotic Inactivating Enzymes, a Class A β-Lactamase KBL-1 and an Aminoglycoside 6′-N-Acetyltransferase AAC(6′)-Iap” (Microbiology Spectrum, 2022)

What was measured:
[1] = tested on: CC1(C)S[C@@H]2[C@H](NC(=O)Cc3ccccc3)C(=O)N2[C@H]1C(=O)O; test: initial rate of hydrolysis, UV spectrophotometry, Lineweaver-Burk; assay type: biochemical, Stenotrophomonas maltophilia; details: 37°C, 50 mM Tris-HCl pH 7.4, 0.3 M NaCl
Source text: (§1) initial rate of hydrolysis, UV spectrophotometry, Lineweaver-Burk on KBL-1

[2] = tested on: CCN1CCN(C(=O)N[C@@H](C(=O)N[C@@H]2C(=O)N3[C@@H]2SC(C)(C)[C@@H]3C(=O)O)c2ccccc2)C(=O)C1=O; test: as above; assay type: biochemical, Stenotrophomonas maltophilia; details: 37°C, 50 mM Tris-HCl pH 7.4, 0.3 M NaCl
Source text: as §1

[3] = tested on: CO/N=C(\C(=O)N[C@@H]1C(=O)N2C(C(=O)O)=C(COC(C)=O)CS[C@H]12)c1csc(N)n1; test: as above; assay type: biochemical, Stenotrophomonas maltophilia; details: 37°C, 50 mM Tris-HCl pH 7.4, 0.3 M NaCl
Source text: as §1

[4] = tested on: CC1(C)S[C@@H]2[C@H](NC(=O)[C@H](N)c3ccccc3)C(=O)N2[C@H]1C(=O)O; test: as above; assay type: biochemical, Stenotrophomonas maltophilia; details: 37°C, 50 mM Tris-HCl pH 7.4, 0.3 M NaCl
Source text: as §1

[5] = tested on: CC(C)(O/N=C(\C(=O)N[C@@H]1C(=O)N2C(C(=O)[O-])=C(C[n+]3ccccc3)CS[C@H]12)c1csc(N)n1)C(=O)O; test: as above; assay type: biochemical, Stenotrophomonas maltophilia; details: 37°C, 50 mM Tris-HCl pH 7.4, 0.3 M NaCl
Source text: as §1

[6] = tested on: CO[C@@]1(NC(=O)C(C(=O)O)c2ccc(O)cc2)C(=O)N2C(C(=O)O)=C(CSc3nnnn3C)CO[C@@H]21; test: as above; assay type: biochemical, Stenotrophomonas maltophilia; details: 37°C, 50 mM Tris-HCl pH 7.4, 0.3 M NaCl
Source text: as §1

[7] = tested on: CC1(C)S[C@@H]2[C@H](NC(=O)[C@H](N)c3ccc(O)cc3)C(=O)N2[C@H]1C(=O)O; test: as above; assay type: biochemical, Stenotrophomonas maltophilia; details: 37°C, 50 mM Tris-HCl pH 7.4, 0.3 M NaCl
Source text: as §1

[8] = tested on: C[C@@H](O)[C@H]1C(=O)N2C(C(=O)O)=C(S[C@@H]3CN[C@H](C(=O)N(C)C)C3)[C@H](C)[C@H]12; test: as above; assay type: biochemical, Stenotrophomonas maltophilia; details: 37°C, 50 mM Tris-HCl pH 7.4, 0.3 M NaCl
Source text: as §1

[9] = tested on: CO/N=C(\C(=O)N[C@@H]1C(=O)N2C(C(=O)[O-])=C(C[N+]3(C)CCCC3)CS[C@H]12)c1csc(N)n1; test: as above; assay type: biochemical, Stenotrophomonas maltophilia; details: 37°C, 50 mM Tris-HCl pH 7.4, 0.3 M NaCl
Source text: as §1

[10] = tested on: C[C@@H](O)[C@H]1C(=O)N2C(C(=O)O)=C(SCCN=CN)C[C@H]12; test: as above; assay type: biochemical, Stenotrophomonas maltophilia; details: 37°C, 50 mM Tris-HCl pH 7.4, 0.3 M NaCl
Source text: as §1

[11] = tested on: CO[C@@]1(NC(=O)Cc2cccs2)C(=O)N2C(C(=O)O)=C(COC(N)=O)CS[C@@H]21; test: as above; assay type: biochemical, Stenotrophomonas maltophilia; details: 37°C, 50 mM Tris-HCl pH 7.4, 0.3 M NaCl
Source text: as §1

[12] = tested on: CC1=C(C(=O)O)N2C(=O)[C@@H](NC(=O)[C@H](N)C3=CCC=CC3)[C@H]2SC1; test: as above; assay type: biochemical, Stenotrophomonas maltophilia; details: 37°C, 50 mM Tris-HCl pH 7.4, 0.3 M NaCl
Source text: as §1

KBL-1 = target: T1, KBL-1 (Stenotrophomonas maltophilia, UniProt A0A7I8E9L1); test: penicillin G hydrolysis, UV spectrophotometry; assay type: biochemical
T1 construct: gene blaKBL-1; full length 286 residues; expressed without signal peptide in E. coli BL21-CodonPlus (pET28a); His-tag removed by TEV
T1 sequence (A0A7I8E9L1 entry or part of it): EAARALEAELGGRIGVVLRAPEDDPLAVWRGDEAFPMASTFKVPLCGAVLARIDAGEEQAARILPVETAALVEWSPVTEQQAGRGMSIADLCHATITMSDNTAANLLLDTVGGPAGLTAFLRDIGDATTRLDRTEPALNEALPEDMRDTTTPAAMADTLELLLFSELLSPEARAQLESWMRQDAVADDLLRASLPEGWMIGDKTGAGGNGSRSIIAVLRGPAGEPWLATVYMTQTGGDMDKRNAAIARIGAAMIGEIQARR

## KBL-1 (Stenotrophomonas maltophilia)
[1]
  Km: 21 ± 5 µM
  kcat: 24 ± 2 s⁻¹
  kcat/Km: 1.17e+06 M⁻¹ s⁻¹
[2]
  Km: 52 ± 7 µM
  kcat: 22 ± 1 s⁻¹
  kcat/Km: 422000 M⁻¹ s⁻¹
[3]
  Km: 31 ± 5 µM
  kcat: 1.33 ± 0.053 s⁻¹
  kcat/Km: 44000 M⁻¹ s⁻¹
[4]
  Km: 37 ± 8 µM
  kcat: 19 ± 1 s⁻¹
  kcat/Km: 532000 M⁻¹ s⁻¹
[5]
  Km: 45 ± 12 µM
  kcat: 0.013 ± 0.003 s⁻¹
  kcat/Km: 300 M⁻¹ s⁻¹
[6]
  Km: 49 ± 4 µM
  kcat: 0.392 ± 0.009 s⁻¹
  kcat/Km: 8000 M⁻¹ s⁻¹
[7]
  Km: 23 ± 4 µM
  kcat: 10 ± 0.4 s⁻¹
  kcat/Km: 455000 M⁻¹ s⁻¹
[8]
  Km: 39 ± 6 µM
  kcat: 0.443 ± 0.056 s⁻¹
  kcat/Km: 11000 M⁻¹ s⁻¹
[9]
  Km: 79 ± 2 µM
  kcat: 0.751 ± 0.029 s⁻¹
  kcat/Km: 10000 M⁻¹ s⁻¹
[10]
  Km: 85 ± 7 µM
  kcat: 1.13 ± 0.143 s⁻¹
  kcat/Km: 13000 M⁻¹ s⁻¹
[11]
  Km: 57 ± 6 µM
  kcat: 0.032 ± 0.002 s⁻¹
  kcat/Km: 1000 M⁻¹ s⁻¹
[12]
  Km: 605 ± 45 µM
  kcat: 2.23 ± 0.13 s⁻¹
  kcat/Km: 4000 M⁻¹ s⁻¹

## CC1(C)[C@H](C(=O)O)N2C(=O)C[C@H]2S1(=O)=O [sulbactam]
KBL-1
  IC50: 1200 nM

## O=C(O)[C@H]1/C(=C/CO)O[C@@H]2CC(=O)N21 [clavulanic acid]
KBL-1
  IC50: 210 nM
